B1: Azoarcus group I ribozyme (parent)
chain: GUGCCUUGCGCCGGGAAACCACGCAAGGGAUGGUGUCAAAUUCGGCGAAACCUAAGCGCCCGCCCGGGCGUAUGGCAACGCCGAGCCAAGCUUCGGCGCCUGCGCCGAUGAAGGUGUAGAGACUAGACGGCACCCACCUAAGGCAAACGCUAUGGUGAAGGCAUAGUCCAGGGAGUGGCGAAAGUCACACAAACCGG

Variants of B1 are the subject of the data set. Put plainly: reverse-splicing fitness (ratio to wild type); higher = more active; in vitro selection; Mg2+ level not given. Summed up:
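An in vitro group I ribozyme library with randomized positions was T7-transcribed and gel-purified. In triplicate, 10 pmol RNA in EPPS pH 7.5 was reacted with 50 pmoles of a 30-nt RNA substrate for 1 h at 37 °C across several added MgCl2 levels (1–48 mM), then stopped with EDTA. Products were reverse transcribed from a substrate-complementary primer, PCR-amplified and sequenced (HiSeq 4000). Fitness is a variant's read proportion after selection over that before, normalised to wild type.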
As for A111G C169A U176G, the reverse-splicing fitness amounted to 0.00542. On to C82G A111U A145U C150G C169A U176A, for which the reverse-splicing fitness was found to be 0.0117. The result for C82G A111U A120U C150G C169G U176A reads 0.00513; that for C82A A111G A120G C169U, 0.0111; that for C82A A111G A120G C169G, 0.0125.

For the variant C82G A111U A145G C150G C169U U176G, the reverse-splicing fitness was found to be 0.00808. For C82U A111G A120U A145C C150G C169A U176A, the reverse-splicing fitness is 0.00187. The result for C82G A111C A145U C150G C169U U176G reads 0.00704.

Take C82U A111U A120U C169U U176A: the reverse-splicing fitness was 0.00357. As to C82G A111U A120G C150A C169U, the reverse-splicing fitness was determined as 0.00827. The result for C82A A120C A145G C169G U176C reads 0.0316; that for C82G A111C A120G C150G C169A, 0.00888; that for A111C C169G, 0.0716.

On to C82G A120G A145C C169A U176G, for which the reverse-splicing fitness was found to be 0.0031. Consider C82U A111C C169G U176A, for which the reverse-splicing fitness turned out to be 0.0181. As to A111G A120G A145U C169A U176G, the reverse-splicing fitness came to 0.00646.

Regarding A111U A145U C150G C169G, the reverse-splicing fitness is 0.011. In the case of A145U C150A C169G U176C, the reverse-splicing fitness was found to be 0.0285.

As to C82A A120C C169A U176C, the reverse-splicing fitness was 0.0229. The result for C82U A145U C150G C169U U176G reads 0.00514; that for C82U A111G A120U A145C C150G C169U U176C, 0.00213; that for C82A A111C A120G A145G U176A, 0.0153. As for C82U A111C A120U A145G C150A C169A U176G, the reverse-splicing fitness was determined as 0.00278. The result for A145C C150G C169G U176A reads 0.0135.

For the variant C82U A111G A120U C150A C169G U176C, the reverse-splicing fitness is 0.00439. The same measure for C82G A120C A145G C169A: 0.0105. The same measure for C82A A111U A145G C169G U176C: 0.0304; for C82G A111C A145U C150A C169A: 0.00994; for A120G A145G C150G C169A: 0.0607.

A111C A120U A145C C150G C169A U176G: the reverse-splicing fitness is 0.00224.

As to A111C A120U A145C C150G C169A U176A, the reverse-splicing fitness stood at 0.00246. Take A111G A120U C150U U176A: the reverse-splicing fitness worked out at 0.23. The same measure for C82U A145U C150G C169G U176G: 0.0049.

For C82G A111G A120C A145G C169U U176G, the reverse-splicing fitness turned out to be 0.00492. The same measure for A111C A120G A145G C150A C169U U176G: 0.00466; for C82G A111G A120C A145G C150G C169A U176G: 0.0091; for C82G A120G: 0.029. The result for C82A A111G A120C A145C C169A reads 0.00673; that for C82U A111C A120C A145U C150G C169G U176G, 0.00558. Consider C82G A111U A120G C150U U176A, for which the reverse-splicing fitness was 0.0111. On to C82G A111C A120C A145C C150U, for which the reverse-splicing fitness is 0.0168. The same measure for C82U A111G C169G U176C: 0.0183; for C82A A111G A145C C150U C169A U176C: 0.00698.

For the variant C82A A120C A145G C150U C169A U176C, the reverse-splicing fitness came to 0.0184. With A111C A120C A145U C150G U176A, the reverse-splicing fitness was 0.0202. The same measure for C82A A111G C150G U176A: 0.00793. The result for C82U A120G A145G C150U U176C reads 0.019.

C82U A111U A120G A145G U176C: the reverse-splicing fitness turned out to be 0.0197. For the variant C82G A111G A120C A145C C150G C169G U176C, the reverse-splicing fitness came to 0.0101. Take C82A A111C A145U C150A U176C: the reverse-splicing fitness amounted to 0.0205. The same measure for A120G A145U U176A: 0.197; for C82G A111C A145C C169G U176C: 0.0197. The same measure for C82G A120G A145G C150A C169U U176A: 0.021; for C82G A111C A120U C150U C169A U176G: 0.00243; for C82U A111U A120G A145U C150G C169U: 0.00779. On to C82U A111C C150U U176G, for which the reverse-splicing fitness is 0.0125. The result for A111G A120G A145U C150G U176A reads 0.0126; that for A120C C169U U176C, 0.174; that for A145C C150U C169A, 0.0428.

C82G A111G C150G U176A: the reverse-splicing fitness came out at 0.0136. The same measure for C82G A111G A120U A145U C150U C169G U176G: 0.00218; for C82U A111C C150U C169A: 0.00914. In the case of A120G C169G U176A, the reverse-splicing fitness is 0.209. Take C82A A120G A145U C150G C169U U176A: the reverse-splicing fitness was determined as 0.0124.

Turning to C82U A111G A145G C150A U176C, the reverse-splicing fitness was determined as 0.0481. The same measure for C82A A120C A145C C150G U176A: 0.0063; for C82U A111U A120G C150U C169U U176A: 0.0214. In the case of C82U A111G A120G A145C C169G U176A, the reverse-splicing fitness was 0.0238. The same measure for A111U A120C A145C C150A C169G U176G: 0.00536; for C82U A111U A120G C150U C169A: 0.0102. The same measure for C82A A111G A120C A145U C150A C169G: 0.00948. For C82U A111C A120C C150U C169A, the reverse-splicing fitness worked out at 0.00816. The same measure for C82U A111G A145G C150G U176A: 0.00967. Turning to A111C A120G A145C C150U C169G, the reverse-splicing fitness was 0.0492. C82G A111C A120U A145C C150U C169U U176A: the reverse-splicing fitness stood at 0.00337. For the variant C82U A111G C150A U176C, the reverse-splicing fitness was found to be 0.0361. With C82A A111U A120C A145C C150A C169U, the reverse-splicing fitness was determined as 0.0111. The same measure for C82U A111G A120U A145U C150A C169G U176C: 0.00253; for C82A A111G A120U A145U C150G U176G: 0.0023; for A111C A120C C150A C169A: 0.00999. For the variant C82G A111C A120U A145G C150U C169U, the reverse-splicing fitness worked out at 0.00642.

For the variant C82G A111C A145U C150U C169U U176C, the reverse-splicing fitness turned out to be 0.0115. The same measure for C82A A111G A145G C169A U176C: 0.0253.
